Source: a protein production outcome set (Wang et al. 2014)

Experiment: label from the status in PepcDB records

With “GQEYRALPGADTGRPDLDRSYALVYPAPRPKALLLLVPGLLGGSTNFALLAERLRAMAPGLEVWAWERRANGLEDRRGFLREDPVAYYRALALPDLTPLRAWGLEVHLKDLDLAVEAARARAPVVLAGHSLGAALAGLYALLHGEKLSGLVLLDGAPGVVPLAEEAFYEGADLPFGRLVGYRAFLRGEGSPAVELLGLGPKALALAEAEAFLAAKRPEEDLPFGPYRATREALALLRVDDDYSLFPVFSVSAGRAWAREGFSLLGLLQGRLVRTVRGPRAGPIAWRDTGEATDPRAFLRAFALPETGFSEWYFPYRLLLEVGGYPYVLRGLKPRALPYPVLALGAGRGLYPRAEDFRLGELFPGTEARAQVLPGLTHLDLLTEREGRTAGLLLRYLQDL” the protein production was “failed”.
With “GQSEDGLSVPKPLGIVEPWQMWLQRWVPGQPATELLITRPDLPEKIAALAHKIHSHSVPTTKTHTIATELQILGDRLREFSHQQPQWQTQIQHFIAQSEQLGEVLNKYPRPTTTIHRDFYPDQILVDGNHLWLVDLDLYCKGDPAVDLGNFIAHMTEYSLRTWG” the protein production was “failed”.
In the case of “GRDYVLSANLSLGMNKMKVDKLNGTDNVIWDQNNRWKSSYNDYCLKVGDQVGLIYGFVYDGLYSMDEFYFDPTNNLQAVPWGSTAAENGTSKDAPIMDADGVEHPKTIINQISGDSNSGIATLPGKVKFKDLNGDGYITEDDRTVIGNTNPKVQGGFGLSGQWKGFDFAMNFNFMLDFDVNNATAYQLSSSESNKNKFYNVLSTFADKGWRYTRDGDGECLYKCYYIDGSLDMYRELNEGRTLWNPTDVTKKITHSYFIEDGSFLRCQDLTVGYTLPGNLTSKWGISKARFYVSASNLFIITGYSGYDPEVDIQTGLTCGMDYNRYPRSRSFVLGTNITF”, the protein production is reported as “failed”.
For “GRGTVTNEVRVAVEVPALPAAIASRLEVPAGAGGVYVERLRRLDGLPLSLDTSYLTVDVGRAVLAGDLRDRDVFGLIEEAAGARLGRAEVAVHAVNADPGTARLLGIGPGAAVFALERLTRLADGRPVDAESIRIRADRMA”, the protein production was “failed”.
With “GSEEEEIPFRCFICRQAFQNPVVTKCRHYFCESCALEHFRATPRCYICDQPTGGIFNPAKELMAKLQK” the protein production was “not failed”.
With “GSGKNLIMIQVEALQGFVVNKSINGKEITPNLNKWINKSLYFDNYFYQVAQGNTSDAEFMSLNSLYPAQSGAAYYTYAGNTFNSIPKDLGDKGYYTAALHGYNEGFWNRNVMYKSEKFDDFYGQTSYKNDEVVGMGLSDESFLNQSLAKMKTFKQPYFSFLITLSSHYPFNDTAGYEKYTMNKLDVGEYKDTLLGNYFEGIHYTDEQLGKFLDKLDKEGLTKNSIIVLYGDHFAIPKENINQLYSFEGIKDPTDLTWYEYQKVPMFIHFPDDEHKGVNHTYSGQMDIYPTIANLYNISNNYMFGEDILNVKDGDSTNVTFRNGSFTDGK” the protein production was “failed”.
For “GSSGSSGMGNSKSGALSKEILEELQLNTKFSEEELCSWYQSFLKDCPTGRITQQQFQSIYAKFFPDTDPKAYAQHVFRSFDSNLDGTLDFKEYVIALHMTTAGKTNQKLEWAFSLYDVDGNGTISKNEVLEIVMAIFKMITPEDVKLLPDDENTPEKRAEKIWKYFGKNDDDKLTEKEFIEGTLANKEILRLIQFEPQKVKEKMKNA”, the protein production was “not failed”.
With “GSSILDRAVIEHNLLSASKLYNNITFEELGALLEIPAAKAEKIASQMITEGRMNGFIDQIDGIVHFETREA” the protein production was “not failed”.
With “GTGTQPTIVIGGFVPDATEAVEFQRELFRRHGSVYYLNYARHGFSVEMFFAQLADLVEDLNRRGEKPVIFAISFGCSLLSRFLRERYSGEGLTVGGIVMTSP” the protein production was “failed”.
In the case of “GVLILHGFTANLESVRALFGPLGRFDLKMATPLLRGHGAASPDELRGVTWREWLDDAENAFETLTGTGGKAVVIGHSMGALLALQLAARRPELVDSVILATPPVRLTSPLGPGRPLHFLAPLVSHVVDRWDMEARFADPGSAIIPKQYDWAPTKTILSMFELLEETMRITGRVRVPALILQARHESVVLPESAEILTRAIATPPEAKSIVWFDKTDHQIFCDCERKAAVDAVVSFVSKRFP”, the protein production is reported as “failed”.
In the case of “HGILIRSSAFLEELADLTSLVVDKTGTLTHGSLRLQALRLADAAEEASVLRLAASLGAASSHPVSRALAALAAHDAYHPLSDIRERQGFGVVARTAAGEAALGRPELFQQLGIDASEVPEHEGPIAGIALDGRFLGWLLLADSVRAEAAEALADLRELGLGRQLLLTGDRRAVADAVAKQVGIRQLVAQALPEDKLRQVGAEIGSGFRPMVVGDGINDSLALKAGVVGVAMGAGGADIALASADIVLIGSDLRRLGTCVRLSR”, the protein production is reported as “failed”.
With “HSGEDLPMVAPGNVRVNVVNSTLAEVHWDPVPLKSIRGHLQGYRIYYWKTQSSSKRNRRHIEKKILTFQGSKTHGMLPGLEPFSHYTLNVRVVNGKGEGPASPDRVFNTPEG” the protein production was “not failed”.
For “HVLYSNILNRDVTISIYLPESYNQLVKYNVILCFDGLDFLRFGRIQRTYESLIKEARIDDAIIVGFHYEDVDKRREEFHPQGSRSHLTIQSVGKEILPFIDSTFSTLKVGNARLLVGDSLAGSIALLTALTYPTIFSRVAMLSPHSDDKVLDKLNQCANKEQLTIWHVIGLDEKDFTLPTNGKRADFLTPNRELAEQIKKYNITYYYDEFEGGHQWKDWKPLLSDILLYFLRKNTDDQHYE”, the protein production was “failed”.
For “HVQLSLPVLQVRDVLVRGFGDSVEEALSEAREHLKNGTCGLVELEKGVLPQLEQPYVFIKRSDALSTNHGHKVVELVAEMDGIQYGRSGITLGVLVPHVGETPIAYRNVLLRKNG”, the protein production was “not failed”.
In the case of “IAGPGLGSGVRARVLQSFTVDSSKAGLAPLEVRVLGPRGLVEPVNMVDNGDGTHTVTYTPSQEGPYMVSVKYADEEIPRSPFKVKVLPTYDASKVTASGPGLSSYGVPASLPVDFAIDARDAGEGLLAVQITDQEGKPKRAIVHDNKDGTYAVTYIPDKTGRYMIGVTYGGDDIPLSPYRIRATQTGDASKCLATGPGIASTVKTGEEVGFVVDAKTAGKGKVTCTVLTPDGTEAEADVIENEDGTYDIFYTAAKPGTYVIYVRFGGVDIPNSPFTVMATDGEVTAVEEAPVNACPPGFRPWVTEEAYVPVSDMNGLGFKPFDLVIPFAVRKGEITGEVHMPSGKTATPEIVDNKDGTVTVRYAPTEVGLHEMHIKYMGSHIPESPLQFYVNYPNSGSVSAYGPGLVYGVANKTATFTIVTEDAGEGGLDLAIEGPSKAEISCIDNKDGTCTVTYLPTLPGDYSILVKYNDKHIPGSPFTAKITDDSRRCSQVKLGSAADFLLDISETDLSSLTASIKAPSGRDEPCLLKRLPNNHIGISFIPREVGEHLVSIKKNGNHVANSPVSIMVVQSEIGDARRAKVYGRGLSEGRTFEMSDFIVDTRDAGYGGISLAVEGPSKVDIQTEDLEDGTCKVSYFPTVPGVYIVSTKFADEHVPGSPFTVKISGEGRVKESITRTSRAPSVATVGSICDLNLKIPEINSSDMSAHVTSPSGRVTEAEIVPMGKNSHCVRFVPQEMGVHTVSVKYRGQHVTGSPFQFTVGPLGEGGAHKVRAGGPGLERGEAGVPAEFSIWTREAGAGGLSIAVEGPSKAEITFDDHKNGSCGVSYIAQEPGNYEVSIKFNDEHIPESPYLVPVIAPSDDARRLTVMSLQESGLKVNQPASFAIRLNGAKGKIDAKVHSPSGAVEECHVSELEPDKYAVRFIPHENGVHTIDVKFNGSHVVGSPFKVRVGEPGQAGNPALVSAYGTGLEGGTTGIQSEFFINTTRAGPGTLSVTIEGPSKVKMDCQETPEGYKVMYTPMAPGNYLISVKYGGPNHIVGSPFKAKVTGQRLVSPGSANETSSILVESVTRSSTETCYSAIPKASSDASKVTSKGAGLSKAFVGQKSSFLVDCSKAGSNMLLIGVHGPTTPCEEVSMKHVGNQQYNVTYVVKERGDYVLAVKWGEEHIPGSPFHVTVP”, the protein production is reported as “failed”.
With “IDGIFIMDAEGHYLDVNPAICSAIGYTRDEFLALDWGVLSRGVDSGWAAASLARIVGGEPLREERTVWTRNGDQLTVELSAHLLPD” the protein production was “failed”.
In the case of “IGGHVGYGVAKSYRGKGYATILLEKALDELKTLNVEVVLMTCNPLNFASQTVMKKCGGYQIESYIKKNGKPVHRYHIPNT”, the protein production is reported as “failed”.
With “IGPPESWPQALKTAVRIMLTSQQPIWIGWGTELTYLYNDPYKSIIGGKHPWALGRPTSEVWSEIWEDIAPLLAKATSGHEGTYVEAQLLIMERNGFPEETYYTFSYSPIPTDDGSPGGIFCANTDDTQRVITERQLSLLRDLAASAAESRS” the protein production was “failed”.
In the case of “IKERVKMEVIGLEIPLISGNEDYTLAELISTYPLEDKDVIVIAETVVSKIEKNVILKNEITPSNEAMELSKKLGKEPEVVQVILDESNEIVKLGPNFIITETKHGFVCANSGVDESNTSKGIKPLPKNPDKSAEEIRMGIEKITGKKVGVIINDSMGRPFRKGSCGIAIGVSGVCGLWDRKGEKDLFGRELKTTEVGIADELAATASAVMGQSNEGIPLVIIRNAPVPFTNGTGKELIRKKEEDVFR”, the protein production is reported as “failed”.
In the case of “IKHWVFDMDGTLTIAVHDFAAIREALSIPAEDDILTHLAALPADESAAKHAWLLEHERDLAQGSRPAPGAVELVRELAGRGYRLGILTRNARELAHVTLEAIGLADCFAEADVLGRDEAPPKPHPGGLLKLAEAWDVSPSRMVMVGDYRFDLDCGRAAGTRTVLVNLPDNPWPELTDWHARDCAQLRDLLSA”, the protein production is reported as “failed”.
For “IKILKNFDEAIIVDAASLDPESLYQRTYAGKMTFGRVSDLGQFIRESEPEPDVRKSKGSMFSQAMKKWVQGNTDEAQEELAWKIAKMIVSDIMQQAQYDQPLEKSTKL”, the protein production was “failed”.
For “IKMAKDYGFCFGVKRAIQIAEKNQNSLIFGSLIHNAKEINRLEKNFNVKIEEDPKKIPKNKSVIIRTHGIPKQDLEYLKNKGVKITDATCPYVIKPQQIVESMSKEGYQIVLFGDINHPEVKGVISYATNQALVVNSLEELQEKKLQRKVALVSQTTKQTPKLLQIASYLVERCTEVRIFNTICNATSYNQKAALDLSKEVDIMIVVGGKTSSNTKQLLSIAKQHCKDSYLVEDENELELAWFKDKKLCGITAGASTPDWIIENVKQKISTI”, the protein production was “failed”.
With “IKTRGRNLYSYEGKIGKAVDDIKSGQEGYVIVEGEYWRALALEDIKKNEDIVVVKREGMKLMVRKKVSDIETSRV” the protein production was “failed”.
For “ILELIAKGKPASKIYAEIALMYEERHSGLRCSMLELKGGKLLHAGAPSLPKSYCKAVHGLEYGPQVGSCGTSTYTGKRVLVENIATDPKWADLKYVALPYGMRSCWSEPIKSSSGKVLGAFGMYHDYPALPNEQESNDLTSAARLAGIVMEREQNQKRIQ”, the protein production was “failed”.
With “ILGWVEFTRLEPWGIKTPARIDTGANTSSMSARDINVFKRNGKTWVRFTFDFKKGTAERSIEIERPLVRMVKIKQHDGPSQERPVISMEICLADEIREAEFDLIDRRALNYPVLLGRKALAGYVVVDPARAYLTKAVCGHTKKKKKGSEPADPGQQHE” the protein production was “failed”.
For “ILKEYSKLLSFNAQKYYLVGAEKEDLVQEGILGLLKAIKFYDETKSSFSSFAFLCIRREMISAIRKANTQKHMVLNEALKTNAILEDSAYFDDEGHNINNYKSSESNPEEAYLLKEEIEEFKKFSENNFSKFEKEVLTYLIRGYSYREIATILSKNLKSIDNTIQRIRKKSEEWIK”, the protein production was “failed”.
With “ILTTENQGVFTITLNRIDKKNALTNDMYKQLCQYFAYAEQTSSIHCVVIQGNEQCFCAGNDLHDFIQCSADDELAALAFVKVLSEFTKPLVAGVAGVAVGIGTTLLLHCDMVIAANNSKFKLPFTQLGLCPEAGSSLLLTQKVGPNKAFELMVLGQTFNAEQALSYGITNQTCQPDELLALTSDVAQAISNLPVESVMTSRRLIRQANKLALSQVISEESQAFSHLVKSEECKNILAKFFK” the protein production was “failed”.
With “INDKLLVQTIKKALFGLRYQRAKKDIQEKDTMISVVADNSPAGICLFGDNGIIYANKALETITGYSKSELIGGSLLDIIQSDSKRLSERINLSLDSACNLEKYSEIRIKTKTGKIRYIDLIANSVEFKEGYVCIANMIDV” the protein production was “failed”.
In the case of “INKLYAINANLEESELRFRSAFNSAAIGMAIVSLEGMWLKVNQSLCQIVGYSEEELLETNFQSITHPEDLELDLGYVRQLLEGDIRFYHMEKRYIHKNGSVIWILLSASLIRDLDNKPLYFISQIQNID”, the protein production is reported as “failed”.
